Source: article PMC2710984
Ends that are not written are not given here.

B1: AIPF (compound 16) (peptide)
peptide: AIPF-NH2
B2: Smac 6-mer peptide AVPIAQ (compound 2) (peptide)
peptide: AVPIAQ-NH2
B3: Smac 5-mer peptide AVPIA (compound 3) (peptide)
peptide: AVPIA-NH2
B4: SVPF (compound 10) (peptide)
peptide: SVPF-NH2
B5: ATPF (compound 17) (peptide)
peptide: ATPF-NH2
B6: Smac 7-mer peptide AVPIAQK (compound 1) (peptide)
peptide: AVPIAQK-NH2
B7: Grim 4-mer peptide AIAY (compound 8) (peptide)
peptide: AIAY-NH2
B8: ALPF (compound 15) (peptide)
peptide: ALPF-NH2

Molecular target: GST–BIR3 fusion protein (XIAP BIR3 domain)
Assay: FMAT bead-based fluorescence competition assay

Binder | IC50 [nM]
B1 | 80
B2 | 270
B3 | 300
B4 | 1000
B5 | 200
B6 | 390
B7 | 340
B8 | 180
